Assay results published in patent publication US9725708B2, “Methods of modulating ubiquitin ligase activity” (Board of Supervisors of Louisiana State University and …, priority 2012, dated 2017).
Substitutions are numbered along the chain they refer to. Read-outs that look alike come from different tables or passages of the source.

Assays:
E6AP ligase [1] = target: T1, E6AP ligase (Homo sapiens, UniProt Q05086); experiment: E6AP-catalyzed 125I-polyubiquitin chain formation, initial rates; format: biochemical
T1 construct: corresponding to full-length GST-E6AP; made in house; host or cells: E. coli
T1 sequence (Q05086 1-872 isoform Q05086-3): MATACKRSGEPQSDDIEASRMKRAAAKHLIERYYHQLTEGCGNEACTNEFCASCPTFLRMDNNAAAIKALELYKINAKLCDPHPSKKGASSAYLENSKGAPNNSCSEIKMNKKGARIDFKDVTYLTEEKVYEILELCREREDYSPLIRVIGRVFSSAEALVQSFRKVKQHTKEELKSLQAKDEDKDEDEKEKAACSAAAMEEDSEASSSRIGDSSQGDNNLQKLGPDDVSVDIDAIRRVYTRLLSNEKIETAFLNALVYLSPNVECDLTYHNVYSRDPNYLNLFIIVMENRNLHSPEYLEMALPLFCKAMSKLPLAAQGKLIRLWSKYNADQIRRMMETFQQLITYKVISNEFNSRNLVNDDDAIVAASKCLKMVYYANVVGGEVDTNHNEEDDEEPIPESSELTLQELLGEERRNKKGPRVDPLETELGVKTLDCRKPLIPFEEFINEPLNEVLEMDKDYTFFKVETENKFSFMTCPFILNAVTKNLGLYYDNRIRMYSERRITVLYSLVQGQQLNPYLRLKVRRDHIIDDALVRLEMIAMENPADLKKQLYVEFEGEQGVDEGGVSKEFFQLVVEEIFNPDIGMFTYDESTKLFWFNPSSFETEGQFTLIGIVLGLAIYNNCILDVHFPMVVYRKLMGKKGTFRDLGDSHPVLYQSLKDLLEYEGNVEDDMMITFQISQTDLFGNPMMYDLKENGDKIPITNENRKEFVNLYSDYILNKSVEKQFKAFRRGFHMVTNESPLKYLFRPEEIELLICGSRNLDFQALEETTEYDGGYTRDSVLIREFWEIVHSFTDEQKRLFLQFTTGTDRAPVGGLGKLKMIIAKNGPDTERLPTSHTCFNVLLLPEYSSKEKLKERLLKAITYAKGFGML
Experimental: (§1) E6AP-catalyzed ^125I-Ubiquitin Conjugation Assay: The E3 ligase activity of recombinant E6AP ligase was quantitated in kinetic assays under initial velocity conditions (Ronchi et al., (2013) J. Biol. Chem. 288, 10349-10360, Ronchi & Haas (2012) Methods Mol. Biol. 832: 197-218). Rates of E6AP-catalyzed ^125I-polyubiquitin chain formation were measured at 37° C. in incubations of 25-μl final volume containing 50 mM Tris-HCl (pH 7.5), 1 mM ATP, 10 mM MgCl2, 1 mM DTT, 10 mM creatine phosphate, 1 IU of creatine phosphokinase, 5 μM ^125I-ubiquitin (approximately 1.5×10^4 cpm/pmol), 50 nM human Uba1, and the indicated concentrations of UbcH7 and E6AP ligase (Siepmann et al., (2003) J. Biol. Chem. 278: 9448-9457; Baboshina et al., (2001) J. Biol. Chem. 276: 39428-39437).
Reactions were initiated by the addition of ^125I-ubiquitin. After 10-30 min, the reactions were quenched by the addition of 25 μl of 2×SDS sample buffer containing 0.3% (v/v) β-mercaptoethanol, and then the samples were heated to 100° C. for 3 min. The polyubiquitin conjugates were resolved from free ^125I-ubiquitin by 12% (w/v) SDS-PAGE under reducing conditions at 4° C. and visualized by autoradiography of the dried gels.
(§2) Polyubiquitin chain formation was measured by excising lanes between the top of the resolving gel and the top of the stacker gel, representing anchored and free ^125I-polyubiquitin chains, respectively, and quantitating associated ^125I-ubiquitin by γ-counting. Absolute rates of ^125I-polyubiquitin chain formation were calculated from the associated radioactivity and the corrected specific radioactivity for ^125I-ubiquitin. Datum points represent single assay determinations, and complete data sets were evaluated by non-linear regression analysis using GraFit version 5.0 (Erithicus). Active Uba1, E2, and E6AP ligase were independently determined in parallel by their stoichiometric formation of ^125I-ubiquitin thioester.

E6APD543A = target: T2, E6APD543A (Homo sapiens, UniProt Q05086, D566A); experiment: E6 rescue of 125I-polyubiquitin chain formation by E6APD543A; format: biochemical; details: 20 nM E6 protein
T2 construct: made in house; host or cells: E. coli
T2 sequence (Q05086 1-872 isoform Q05086-3 D563A): T1 sequence (Q05086 1-872 isoform Q05086-3) with D563A
Experimental: as §1, with “39428-39437). […]” for “39428-39437).”
as §2, with “Active Uba1, E2, and E6AP ligase were independently determined in parallel by their stoichiometric formation of ^125I-ubiquitin thioester.” left out

E6AP ligase [2] = target: E6AP ligase (Homo sapiens, UniProt Q05086); details: surface plasmon resonance, Zanier et al. 2005; cited from earlier work

B1: E6 protein: recombinant human papilloma virus 16 E6 protein, 158 amino acids (protein)
chain: MHQKRTAMFQDPQERPRKLPQLCTELQTTIHDIILECVYCKQQLLRREVYDFAFRDLCIVYRDGNPYAVCDKCLKFYSKISEYRHYCYSLYGTTLEQQYNKPLCDLLIRCINCQKPLCPEEKQRHLDKKQRFHNIRGRWTGRCMSCCRSSRTRRETQL
effect on initial rate, wild-type protein (E6AP ligase [1]; 20 nM E6 protein, 1 nM GST-E6AP): significantly enhanced | Kactivation (E6AP ligase [1]; activation of E6AP ligase catalytic activity): 1.5 nM | Kd (E6AP ligase [1]; from double reciprocal plot, His6-E6AP, read-out: Kd for E6 binding): 1.5 nM | kcat (E6AP ligase [1]; in the presence of 20 nM E6 protein, 0.4 nM His6-E6AP): 0.81 ± 0.045 s⁻¹ | stimulation in E6AP ligase activity (E6AP ligase [1]; saturating E6 protein): 14 fold | mode of action (E6AP ligase [1]; with respect to [UbcH7]o): non-essential activator | effect on rate (E6APD543A): no enhancement in rate | Kd (E6AP ligase [2]): 4000 nM
